Assay [1] has as its target Nir2 peptide FFAT motif (Homo sapiens) (UniProt O00562). In words: ITC. Conditions: cited from earlier work.
Assay [2] has as its target T46I mutant of the hVAPB MSP domain (human, UniProt O95292 1-125, T46I). In words: ITC.
Target sequence in this assay (O95292 1-125 T46I): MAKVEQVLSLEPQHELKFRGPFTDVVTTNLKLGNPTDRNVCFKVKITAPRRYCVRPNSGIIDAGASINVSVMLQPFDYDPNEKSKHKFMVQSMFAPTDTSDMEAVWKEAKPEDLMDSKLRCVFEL
The target of assay [3] is T1, T46I mutant of the hVAPB MSP domain (human, UniProt O95292 1-125, T46I).
T1 construct: human VAPB MSP domain, residues 1-125, with the ALS-causing T46I mutation found in non-Brazilian kindred; Made by site-directed mutagenesis on the WT-MSP construct; PDB 3IKK is the structure of the WT parent; 15N-labelled for the HSQC titrations in which its own spectrum was observed; also called T46I-MSP domain; T46I-MSP
Kind of assay: ITC; Microcal VP; peptide or EphA4 (300 µM) in the syringe, MSP protein (10 µM) in the cell; 50 mM Tris-HCl, 150 mM NaCl, 2 mM DTT, pH 7.5, 25°C; single binding site model. Conditions: both partners purified. In general terms: Isothermal titration calorimetry measures the heat released or taken up as one component is titrated into another.
T1 sequence (O95292 1-125 T46I): as above

Assay [4] has as its target T2, wild-type (WT) hVAPB MSP domain (residues 1–125) (human, UniProt O95292 1-125).
T2 construct: human VAPB (vesicle-associated membrane protein-associated protein B), MSP domain, residues 1-125; 15N-labelled for the HSQC titrations in which its own spectrum was observed; also called WT-MSP domain; WT-MSP
In words: NMR titration; 1H-15N HSQC of 15N-labeled WT-/T46I-MSP (100 µM) without or with unlabeled Nir2 peptide or EphA4 at molar ratios 1:0.5 to 1:8; 10 mM phosphate buffer, pH 6.8, 25°C. Conditions: both partners purified.

T2 sequence (O95292 1-125): as the sequence (O95292 1-125 T46I) above, with I46T counted along it

A word on the Kd: it is the constant that tells how readily two partners part at equilibrium. Take VAPB MSP (from UniProt O95292): the dissociation constant (Kd) in assay [1] was 650 nM.

B1: Nir2 peptide (EEEFFDAHE) (peptide)
peptide: EEEFFDAHE
notes: FFAT-motif peptide of the Nir2 protein; also called the peptide; source: synthetic peptide, bought: Genesis Biotech Inc., further purified by HPLC (reverse-phase C18)
As for B1, the Ka in assay [2] amounted to 455000 M⁻¹. In assay [3], this molecule displayed an equilibrium dissociation constant (Kd) of 2200 nM. Moreover, the binding result in assay [4] is reported as “binds”.
